US20120328589A1

Molecular target: mannose receptor (on NR8383 rat alveolar macrophages) (rat)
Assay: cell-based or functional assay

uptake by rat alveolar macrophages in the absence of mannan (GCD activity in cell lysate, pNP-G assay) [ng/mL lysate]	uptake by rat alveolar macrophages, reduction by mannan (GCD activity in cell lysate, pNP-G assay) [%]	Substance
333	90	Plant recombinant human glucocerebrosidase (prh-GCD) (from UniProt P04062 40-536) (enzyme)
200	85	prh-GCD cross-linked with bis-NHS-PEG5 at a 50:1 bis-NHS-PEG5:GCD molar ratio (from UniProt P04062 40-536) (enzyme)
